From patent US6306613, “Modulators of leaderless protein export and methods for identifying and using the same” (Ciblex Corporation, dated 2001)

Tests used:
[1] = molecular target: T1, rat Na+/K+ ATPase α1 subunit (rat, UniProt P06685); test: co-immunoprecipitation from co-transfected COS cells (FIGS. 7-9)
[2] = molecular target: T1, rat Na+/K+ ATPase α1 subunit; test: co-immunoprecipitation from co-transfected COS cells with anti-Na+/K+ ATPase α1 or anti-hCG antibody (FIG. 6)

Binder	binding result [1]	binding result [2]
neomycin phosphotransferase (NPT) (enzyme) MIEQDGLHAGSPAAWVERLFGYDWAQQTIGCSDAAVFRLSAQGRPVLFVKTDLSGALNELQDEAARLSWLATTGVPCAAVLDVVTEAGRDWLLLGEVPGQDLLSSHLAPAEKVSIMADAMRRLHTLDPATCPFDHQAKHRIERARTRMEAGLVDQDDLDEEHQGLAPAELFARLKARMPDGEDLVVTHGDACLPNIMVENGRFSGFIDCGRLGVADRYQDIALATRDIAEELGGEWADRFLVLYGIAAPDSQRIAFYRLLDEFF	no binding	
human chorionic gonadotropin α (hCG-α) (ligand) not shown		no binding
